According to patent US5844099, “Cytokine antagonists” (Regeneron Pharmaceuticals, Inc., dated 1998):

Columns and labels:
[1] = biological target: CNTFRα on EW-1 cells; experiment: two site fit of CNTF binding on EW-1 cells; low affinity site
[2] = biological target: CNTFRα, gp130 and LIFRβ on EW-1 cells; experiment: two site fit of CNTF binding on EW-1 cells; high affinity site
[3] = biological target: T1, recombinant human IL-6 (human, UniProt P05231)
[4] = biological target: human 125I-IL-6 (human) (UniProt P05231); experiment: dissociation of 20 pM 125I-IL-6 from 500 pM mAb B-E8 after adding 20 nM cold IL-6; precipitation with Protein G-Sepharose
[5] = biological target: T2, CNTFRα:β1 (CNTFRα and gp130) on PC12D cells; experiment: Scatchard analysis of 125I-CNTF saturation binding on PC12D cells; high affinity site
T2 sequence (Q08406 whole entry, looked up): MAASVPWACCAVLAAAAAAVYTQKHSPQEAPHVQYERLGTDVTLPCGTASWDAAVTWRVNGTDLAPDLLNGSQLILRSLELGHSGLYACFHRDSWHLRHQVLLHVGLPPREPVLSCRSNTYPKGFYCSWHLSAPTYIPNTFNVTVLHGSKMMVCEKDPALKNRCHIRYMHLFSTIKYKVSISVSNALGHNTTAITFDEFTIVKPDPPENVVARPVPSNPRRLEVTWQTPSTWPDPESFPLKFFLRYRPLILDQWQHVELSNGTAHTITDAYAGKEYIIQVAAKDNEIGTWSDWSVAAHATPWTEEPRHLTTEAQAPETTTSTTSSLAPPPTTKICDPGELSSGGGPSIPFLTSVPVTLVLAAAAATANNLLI
T2 sequence (P40190 whole entry, looked up): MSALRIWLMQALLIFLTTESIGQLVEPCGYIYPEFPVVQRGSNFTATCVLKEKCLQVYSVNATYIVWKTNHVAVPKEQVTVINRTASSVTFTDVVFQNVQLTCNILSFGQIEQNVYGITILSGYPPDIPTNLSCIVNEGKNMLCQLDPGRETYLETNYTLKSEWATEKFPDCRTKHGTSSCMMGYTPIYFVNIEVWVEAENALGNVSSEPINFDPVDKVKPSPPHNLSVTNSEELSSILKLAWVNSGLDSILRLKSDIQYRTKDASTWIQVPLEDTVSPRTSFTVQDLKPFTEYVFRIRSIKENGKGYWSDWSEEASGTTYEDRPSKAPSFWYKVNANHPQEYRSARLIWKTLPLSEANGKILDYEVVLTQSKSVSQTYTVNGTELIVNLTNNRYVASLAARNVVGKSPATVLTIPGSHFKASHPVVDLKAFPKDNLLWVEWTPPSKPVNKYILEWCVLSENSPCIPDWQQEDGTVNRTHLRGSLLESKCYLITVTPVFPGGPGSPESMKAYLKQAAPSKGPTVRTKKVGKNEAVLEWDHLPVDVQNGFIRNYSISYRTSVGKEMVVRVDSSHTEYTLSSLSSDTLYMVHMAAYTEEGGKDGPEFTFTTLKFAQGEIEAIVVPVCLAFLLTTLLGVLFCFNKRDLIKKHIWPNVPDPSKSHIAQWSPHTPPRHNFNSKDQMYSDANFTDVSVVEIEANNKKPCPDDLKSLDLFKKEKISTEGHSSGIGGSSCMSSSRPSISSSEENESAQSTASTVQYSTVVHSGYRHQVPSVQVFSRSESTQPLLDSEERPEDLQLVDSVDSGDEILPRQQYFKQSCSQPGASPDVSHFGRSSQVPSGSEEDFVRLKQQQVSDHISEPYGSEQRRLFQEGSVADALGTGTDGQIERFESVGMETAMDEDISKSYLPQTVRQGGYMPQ

[6] = biological target: T3, CNTFRα on PC12D cells; experiment: Scatchard analysis of 125I-CNTF saturation binding on PC12D cells; low affinity site
T3 sequence (Q08406 23-342, looked up): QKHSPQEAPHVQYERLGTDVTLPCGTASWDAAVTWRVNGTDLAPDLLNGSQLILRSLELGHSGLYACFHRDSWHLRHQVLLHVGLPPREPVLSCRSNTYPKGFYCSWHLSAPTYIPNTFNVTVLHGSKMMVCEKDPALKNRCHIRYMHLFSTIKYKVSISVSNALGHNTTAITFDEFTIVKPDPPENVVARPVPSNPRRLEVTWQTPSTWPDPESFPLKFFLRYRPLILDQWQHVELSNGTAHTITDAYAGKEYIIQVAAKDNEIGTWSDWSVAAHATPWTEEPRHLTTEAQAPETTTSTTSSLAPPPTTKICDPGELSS

[7] = biological target: T1, recombinant human IL-6; experiment: cell-based or functional assay

CNTF (ligand)
Kd [1]: 1 nM
Kd [2]: 0.01 nM

anti-IL-6 monoclonal neutralizing antibody B-E8
IL-6-dependent proliferation of XG-1 cells (MTT assay) (fold molar excess over IL-6) [3]: 10
percent of the counts remaining associated after three days [4]: < 5%

B1: 125I-CNTF (ligand, UniProt P20294 1-200, looked up, species assumed)
Ciliary neurotrophic factor: MAFAEQTPLTLHRRDLCSRSIWLARKIRSDLTALMESYVKHQGLNKNINLDSVDGVPVASTDRWSEMTEAERLQENLQAYRTFQGMLTKLLEDQRVHFTPTEGDFHQAIHTLMLQVSAFAYQLEELMVLLEQKIPENEADGMPATVGDGGLFEKKLWGLKVLQELSQWTVRSIHDLRVISSHQMGISALESHYGAKDKQM
modifications: 125I label
Kd [5]: 0.009 nM
Kd [6]: 3.4 nM

B2: gp130-Fc homodimer (Fc fusion)
chain (part 1 of 2): ELLDPCGYISPESPVVQLHSNFTAVCVLKEKCMDYFHVNANYIVWKTNHFTIPKEQYTIINRTASSVTFTDIASLNIQLTCNILTFGQLEQNVYGITIISGLPPEKPKNLSCIVNEGKKMRCEWDGGRETHLETNFTLKSEWATHKFADCKAKRDTPTSCTVDYSTVYFVNIEVWVEAENALGKVTSDHINFDPVYKVKPNPPHNLSVINSEELSSILKLTWTNPSIKSVIILKYNIQYRTKDASTWSQIPPEDTASTRSSFTVQDLKPFTEYVFRIRCMKEDGKGYWSDWSEEASGITYEDRPSKAPSFWYKIDPSHTQGYRTVQLVWKTLPPFEANGKILDYEVTLTRWKSHLQNYTVNATKLTVNLTNDRYLATLTVRNLVGKSDAAVLTIPACDFQATHPVMDLKAFPKDNMLWVEWTTPRESVKKYILEWCVLSDKAPCITDWQQEDGTVHRTYLRGNLAESKCYLITVTPVYADGPGSPESIKAYLKQAPPSKGPTVRTKKVGKNEAVLEWDQLPVDVQNGFIRNYTIFYRTIIGNETAVNVDSSHTEYTLSSLTSDTLYMVRMAAYTDEGGKDGPEFTFTTPKFAQGEIESG
chain (part 2 of 2): HHHHHH
IL-6-dependent proliferation of XG-1 cells [7]: 1000 fold molar excess over IL-6
